The source of these data is patent publication US11382907B2, “Methods and compositions for treating aging-associated impairments using CCR3-inhibitors” (Alkahest, Inc., priority 2017, dated 2022).

Holding throughout (type): in vivo
The subject of assay [1] is two-month-old C57Bl/6 mice treated with rmCCL11. Description: Y-maze test in young mice given recombinant mouse CCL11. Conditions: 2-month-old mice; rmCCL11 i.p.; Compound 1 30 mg/kg p.o. b.i.d. On the procedure: A large Y-maze test assesses short-term memory of the familiarity of a specific context. Mice are brought to the experimental room for at least 30 min of acclimation to the experimental room conditions (dim lighting) prior to testing. For the initial training trial, the mouse is placed at the end of one arm of a large Y-maze designated “start arm” (arm length: 15 inches). The third arm of the maze is blocked off, allowing the mouse to explore two of the three arms freely (“start arm” and “familiar arm”) for 5 min. Each arm contains spatial cues. One hour later, the mouse is placed back into the maze in the “start arm” and allowed to explore all three arms with the third arm unblocked (“novel arm”). Movements in and out of each arm are tracked using automated tracking software (CleverSys). Testing is performed under dim lighting, and the apparatus is cleaned with 70% ethanol between trials.
Two-month-old C57Bl/6 mice were dosed with either vehicle control or Compound 1 by oral gavage twice daily for 18 days. During the last week of treatment, mice were subjected to behavior testing prior to perfusion on the last day of treatment. All mice received 5 consecutive days of BrdU injection at 150 mg/kg IP immediately prior to treatment start. […]

Assay [2] shares this test system. The experiment in a line: Open Field test in young mice given recombinant mouse CCL11. Conditions: 2-month-old mice; rmCCL11 i.p.; Compound 1 30 mg/kg p.o. b.i.d., 2 weeks. On the procedure: Open Field is used to evaluate general locomotor activity and exploratory behavior in a novel environment. Mice are brought to the experimental room for at least 30 min for acclimation to the experimental room conditions (dim lighting) prior to testing. The testing arena consists of a 50 cm×50 cm square arena. Mice are placed in the center of an arena and tracked for 15 minutes. Time spent in the peripheral and centers zones is analyzed, along with rearing behavior. 70% ethanol is used to clean all surfaces between trials.
[…] During the last week of treatment, mice were subjected to behavior testing prior to perfusion on the last day of treatment. All mice received 5 consecutive days of BrdU injection at 150 mg/kg IP immediately prior to treatment start. […]

Assay [3] has the same test system. The experiment in a line: Barnes maze test in young mice given recombinant mouse CCL11. Conditions: 2-month-old mice; rmCCL11 i.p.; Compound 1 30 mg/kg p.o. b.i.d. An excerpt: A modified Barnes maze was used to assess spatial working/episodic like learning and memory. The Barnes maze apparatus consists of a 122 cm diameter circular platform with 40 escape holes, each with a diameter of 5 cm placed along three rings of varying distances from the center of the platform. An escape box is attached to one of the holes and all holes are left uncovered. Bright lights and a fan are trained on the maze to provide adverse stimuli to encourage escape. Visual cues are placed on all four sides of the maze. Mice are given a series of 4 or 5 trials with inter-trial intervals of approximately 10 min, and the maximum duration of each trial is 90 or 120 sec. For each trial, mice are placed in the center of the maze. After 10 seconds, mice are allowed to explore, and the trial is ended if the mouse has found and entered an escape box before the end of the trial. Mice that cannot find the escape box are led to it and allowed to enter and given 30 sec to remain before being returned to its home cage. Training is done for 4 days. Data that is recorded and analyzed include velocity, escape latency, and distance moved.
Two-month-old C57Bl/6 mice were dosed with either vehicle control or Compound 1 by oral gavage twice daily for 18 days. During the last week of treatment, mice were subjected to behavior testing prior to perfusion on the last day of treatment. […]

B1: rmCCL11: Recombinant mouse CCL11 (eotaxin-1), injected i.p. to impair behaviour in young mice (protein, UniProt P48298 24-97, looked up)
Eotaxin: HPGSIPTSCCFIMTSKKIPNTLLKSYKRITNNRCTLKAIVFKTRLGKEICADPKKKWVQDATKHLDQKLQTPKP
Regarding B1, the “memory in the Y-maze” value in assay [1] is reported as “impaired memory in the Y-maze”. Besides, the “anxiety in the Open Field” value in assay [2] is “significantly worsened anxiety”. Further, the “memory in the Barnes maze” value in assay [3] is “impaired memory in the Barnes maze”.
